Here are results for 1 molecule from patent US20170137467A1 (CHROMOTEK, published 2017).

Ends that are not written are not given here.

Assay in all cases: pepscan: 15-mer peptide on OVA-microspheres, biotinylated BC2-Nb, streptavidin-PE
In test [1] the target is T1, β-catenin peptide 53-67 (human, UniProt P35222).
T1 construct: synthetic 15-mer; additional N-terminal cysteine for coupling; also called Start 53 End 67
T1 peptide (looked up): EEEDVDTSQVLYEWE
From the text: (§1) As negative controls, microspheres comprising Ovalbumin and the Myc-peptide ([…]) covalently coupled to OVA-microspheres were used. […] Evaluation of the PE-signals were done in a Flexmap 3D (Luminex).

Test [2] concerns the target T2, β-catenin peptide 5-19 (human, UniProt P35222).
T2 construct: synthetic 15-mer; additional N-terminal cysteine for coupling; also called Start 5 End 19
T2 peptide (looked up): ADLMELDMAMEPDRK
Text: as §1

Test [3] addresses T3, β-catenin peptide 25-39 (human, UniProt P35222).
T3 construct: synthetic 15-mer; additional N-terminal cysteine for coupling; also called Start 25 End 39
T3 peptide (looked up): WQQQSYLDSGIHSGA
Text: as §1

Test [4] deals with T4, β-catenin peptide 49-63 (human, UniProt P35222).
T4 construct: synthetic 15-mer; additional N-terminal cysteine for coupling; also called Start 49 End 63
T4 peptide (looked up): KGNPEEEDVDTSQVL
Text: as §1

In test [5] the target is T5, β-catenin peptide 97-111 (human, UniProt P35222).
T5 construct: synthetic 15-mer; additional N-terminal cysteine for coupling; also called Start 97 End 111
T5 peptide (looked up): AMFPETLDEGMQIPS
Text: as §1

Test [6] addresses T6, β-catenin peptide 105-119 (human, UniProt P35222).
T6 construct: synthetic 15-mer; additional N-terminal cysteine for coupling
T6 peptide (looked up): EGMQIPSTQFDAAHP
Text: as §1

Test [7] deals with T7, β-catenin peptide 73-87 (human, UniProt P35222).
T7 construct: synthetic 15-mer; additional N-terminal cysteine for coupling; also called Start 73 End 87
T7 peptide (looked up): SFTQEQVADIDGQYA
Text: as §1

The target in test [8] is T8, β-catenin peptide 41-55 (human, UniProt P35222).
T8 construct: synthetic 15-mer; additional N-terminal cysteine for coupling; also called Start 41 End 55
T8 peptide (looked up): TTAPSLSGKGNPEEE
Text: as §1

Test [9] concerns the target T9, β-catenin peptide 77-91 (human, UniProt P35222).
T9 construct: synthetic 15-mer; additional N-terminal cysteine for coupling; also called Start 77 End 91
T9 peptide (looked up): EQVADIDGQYAMTRA
Text: as §1

Test [10] has as its target T10, β-catenin peptide 33-47 (human, UniProt P35222).
T10 construct: synthetic 15-mer; additional N-terminal cysteine for coupling; also called Start 33 End 47
T10 peptide (looked up): SGIHSGATTTAPSLS
Text: as §1

Test [11] addresses T11, β-catenin peptide 85-99 (human, UniProt P35222).
T11 construct: synthetic 15-mer; additional N-terminal cysteine for coupling; also called Start 85 End 99
T11 peptide (looked up): QYAMTRAQRVRAAMF
Text: as §1

The target of test [12] is T12, AMEPDRKAAVSHWQQ (also: coupled via added N-terminal Cys to OVA-microspheres).
T12 construct: also called β-catenin peptide Start 13 End 27
T12 peptide: CAMEPDRKAAVSHWQQ
Text: as §1

Test [13] deals with T13, β-catenin peptide 65-79 (human, UniProt P35222).
T13 construct: synthetic 15-mer; additional N-terminal cysteine for coupling; also called Start 65 End 79
T13 peptide (looked up): EWEQGFSQSFTQEQV
Text: as §1

Test [14] addresses T14, β-catenin peptide 81-95 (human, UniProt P35222).
T14 construct: synthetic 15-mer; additional N-terminal cysteine for coupling; also called Start 81 End 95
T14 peptide (looked up): DIDGQYAMTRAQRVR
Text: as §1

Test [15] concerns the target T15, β-catenin peptide 57-71 (human, UniProt P35222).
T15 construct: synthetic 15-mer; additional N-terminal cysteine for coupling; also called Start 57 End 71
T15 peptide (looked up): VDTSQVLYEWEQGFS
Text: as §1

The target of test [16] is T16, β-catenin peptide 45-59 (human, UniProt P35222).
T16 construct: synthetic 15-mer; additional N-terminal cysteine for coupling; also called Start 45 End 59
T16 peptide (looked up): SLSGKGNPEEEDVDT
Text: as §1

Test [17] has as its target T17, β-catenin peptide 109-123 (human, UniProt P35222).
T17 construct: synthetic 15-mer; additional N-terminal cysteine for coupling; also called Start 109 End 123
T17 peptide (looked up): IPSTQFDAAHPTNVQ
Text: as §1

B1: BC2 nanobody (VHH)
VHH: QVQLVESGGGLVQPGGSLTLSCTASGFTLDHYDIGWFRQAPGKEREGVSCINNSDDDTYYADSVKGRFTIFMDNAKDTVYLQMNSLKPEDTAIYYCAEARGCKRGRYEYDFWGQGTQVTVSS
notes: Alpaca VHH, 122 aa; also called BC2-Nb; BC2 nanotrap (BC2-Nb immobilized on agarose/Sepharose beads); not shown: C-terminal 6xHis-tag added by the pHEN6 vector
Regarding B1, the binding result in test [1], in [2], in test [3], in test [4], in [5] and in test [6] was “no binding (tested: 1 µg/ml BC2-Nb)” throughout. Moreover, the binding result is reported as “no binding (tested: 1 µg/ml BC2-Nb)” in test [7]; “no binding (tested: 1 µg/ml BC2-Nb)” in [8]; “no binding (tested: 1 µg/ml BC2-Nb)” in test [9]; “no binding (tested: 1 µg/ml BC2-Nb)” in [10]; “no binding (tested: 1 µg/ml BC2-Nb)” in test [11]; “binds” in [12]. In addition, the binding result in test [13], in test [14], in test [15], in [16] and in test [17] was “no binding (tested: 1 µg/ml BC2-Nb)” each time.
